Substrate in this data set: Nc1nc(N[C@@H]2O[C@H](COP(=O)(O)O)[C@@H](O)[C@H]2O)c(NC=O)c(=O)[nH]1
The data set is described as follows: formamidase assay, fluorescence HPLC of derivatized product (DARoPP / formate). Particulars: 50 mM TES pH 7.2, 10% glycerol, 0.25 mM DTT, 1 mM MgCl2, 30 °C, 8 min. The class given is biochemical, Sinorhizobium meliloti.

B1: Sm-BrbF (SMc02977) (Sinorhizobium meliloti 1021) (protein)
chain: MSLPKPRWTDNSAALEPVERRDWIAVLPLGAHEQHGPHLPFETDRLIAAGIVERVIAALPQALPVTFLPVEPVGYSIEHMDVSGTRTLAYDEAIERWLGIAESLAGLGVRKFVMLNAHGGNSPLMTIVATEARIRFRMLAVATSWTRFGQPDGWISAKDKAVDIHGGDIETSVMLALHPDKVDMAKARAFPSRQGEFALSFKHLRAYGPHAFGWKMSDLNPDGVAGNAAAATAERGEALLAHAAKGIIELLEDVNAFDAGELD
notes: full ORF in pET-30 Ek/LIC, E. coli BL21; His tag cleaved with enterokinase, untagged
Broadly, the Km is the concentration of substrate that gives half-maximal velocity. With B1, the Michaelis-Menten constant (Km) was determined as 152.44 ± 33.59 µM.

Values taken from article PMC9478397.
